± gives the half width of the 95% confidence interval.
Columns and labels:
[1] = folding stability dG unfold from trypsin proteolysis; higher = more stable
Procedure, shortened: (§1)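 Mini-proteins designed to be under 80 residues and free of cysteine were carried in a PA-tagged cDNA display construct and digested with trypsin and with chymotrypsin. Each protease was applied at 11 threefold-diluted concentrations, alongside a no-protease condition, before sequencing. K50 came from Bayesian fitting of the sequencing counts, and unfolding free energy was obtained by comparing it with a sequence-predicted unfolded-state K50 and a shared folded-state K50, for each protease separately or for both together. Designs were retained only if their AlphaFold2 dimer inter-PAE exceeded 15.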

[2] = folding stability dG unfold from chymotrypsin proteolysis; higher = more stable
Procedure, shortened: as §1

[3] = folding stability dG unfold (combined trypsin and chymotrypsin); higher = more stable
Procedure, shortened: as §1

Sequence	folding stability dG unfold [1]	folding stability dG unfold [2]	folding stability dG unfold [3]
SAGGSAGGSAGDAEEIADEIRENMYGPDGKYVPKEVEIKEIEPPPGQLKVEIEMPPGMPISAGGSAGGSAGG [r17_519_TrROS]	1.81 ± 0.13 kcal/mol	0.954 ± 0.077 kcal/mol	1.32 ± 0.16 kcal/mol
SAGMMKFPPGAKIKIVNKETGEEKEITLPEGAEVEFDEETGEVHIRVKVDGKEYRFTFKNGEIVEVEEVSAG [r5_22_TrROS_Hall]	3.23 ± 0.26 kcal/mol	4.3 ± 0.066 kcal/mol	3.73 ± 0.3 kcal/mol
SAGGLYKKDPDGQYVKPVPKVPPIPIEIKFPNGVEVKIEIYPYSNHITIEYTGPNPELANELIQEIIQSAGG [r13_701_TrROS]	0.425 ± 0.091 kcal/mol	0.624 ± 0.2 kcal/mol	0.702 ± 0.19 kcal/mol
SAGGSAMSLSDIKDVDVYRNPNGWYTAKLKIKDPNNGKDKEVNIHVPPGQTPEKAKNIAREILKELSAGGSA [r15_181_TrROS]	0.606 ± 0.03 kcal/mol	1.43 ± 0.11 kcal/mol	1.14 ± 0.086 kcal/mol
SMDIKVTKLPDGSYRITASVPPDTKPITIPVPKTGKPVVITTEPGKLTVTTDDEEVVKEVAEAIKKGELLSA [r9_515_JUSTAS]	0.951 ± 0.066 kcal/mol	0.929 ± 0.087 kcal/mol	1.02 ± 0.15 kcal/mol
SAGGSAGGNLTLPPDNIKRIWHVGDGHWLIKMDDNVLMINPGNGKIQTVKKEDADKLPPGDPFFSAGGSAGG [r6_890_TrROS]	-0.473 ± 0.2 kcal/mol	0.0704 ± 0.19 kcal/mol	0.0115 ± 0.15 kcal/mol
SAMMKAEIVEIKFDPKTKKLTIKFPDGSKLEIKPGETIKIKIKVTVFNEETGKLEEKEITLTLKLPEGLSAG [r14_366_TrROS_Hall]	2.31 ± 0.27 kcal/mol	2.96 ± 0.1 kcal/mol	2.91 ± 0.43 kcal/mol
SAGGMPPGDPVKVNVQIRIRMRDPNGKKPELTVPIEYNVQSKEDARDAILKIAKELADEYGYEIEVFSAGGS [r8_149_TrROS]	0.711 ± 0.041 kcal/mol	1.52 ± 0.12 kcal/mol	1.31 ± 0.24 kcal/mol
SAGGSAGGSAGGEELEVSVSVSVTEVDGKLYLTATVTIDGKEYTFTAELTVTLPPPPPEESAGGSAGGSAGG [r7_413_TrROS_Hall]	2.77 ± 0.32 kcal/mol	3.91 ± 0.19 kcal/mol	3.71 ± 0.28 kcal/mol
KTVHIPINGMPLDEMLDMARDALREDPDEGKTITIWVPGNPEWLENLGFDKIEPYKDPERPYMRIKFKVPPS [r1_467_TrROS]	0.298 ± 0.17 kcal/mol	1.24 ± 0.22 kcal/mol	0.816 ± 0.14 kcal/mol
SAGGSAGGSPGTLIEVRFPDRIVRIYQLPPGVYRVEVYEPPYLVATIELPNVTAEEAARLALGSAGGSAGGS [r20_8_TrMRF]	1.61 ± 0.034 kcal/mol	3.071 ± 0.021 kcal/mol	2.72 ± 0.054 kcal/mol
SAGGSAGGSPPNWKTIPITFWVDPGDVEEFANILRDLGLEIEDVEVEPNPDGHVWVTITIVIPSAGGSAGGS [r12_905_TrROS]	2.57 ± 0.17 kcal/mol	3.54 ± 0.1 kcal/mol	3.33 ± 0.18 kcal/mol
SAGGRIHIPIPLNQAREILKKLAPDGRDVTAEPQGPSKDNVYYTIEFEPPKNGNEVDIEIWIPPPGDSAGGS [r16_486_TrROS]	-0.000485 ± 0.1 kcal/mol	-0.234 ± 0.36 kcal/mol	0.0968 ± 0.18 kcal/mol
SMTAEVTLTIVYPDGTSTTLPMTFPADDPEALRAAIRAAVAAAGYTPTALQMTFTAQPDGSVRVDVTVTVAS [r1_281_JUSTAS]	4.1 ± 0.059 kcal/mol	5.7 ± 0.066 kcal/mol	5.61 ± 0.077 kcal/mol
SAGGSAKFKLEATPLEDGTLIIPIEIEVTVEKPFPDPNGIPKIKPVKKKFRFLIIKDGDEIKIFLGSAGGSA [r15_883_TrMRF]	1.59 ± 0.089 kcal/mol	2.66 ± 0.097 kcal/mol	2.31 ± 0.23 kcal/mol
SAGGPPRPVRIDIDPDAGSIEIMFPNGWPYEIPIPPDSIDEITLDPNDHVIEIKMPGKEIKFDIEPVSAGGS [r16_104_TrROS]	-0.376 ± 0.12 kcal/mol	0.757 ± 0.029 kcal/mol	0.443 ± 0.11 kcal/mol
SDNFQPDMTFPVTEIGDDKVTMKYNGKPYYIPTSKITSPNVTVKITDGTVSEVSSPSPSPLPPENIKKLSSA [r9_842_JUSTAS]	-0.705 ± 0.24 kcal/mol	-0.293 ± 0.35 kcal/mol	-0.263 ± 0.42 kcal/mol
SAGGGLALRLEVETERVEREVFDADGRLVAREEVEVRRVRLELVPLPPAPPPPTVTVRPGDPRDPRLRSAGG [r13_508_TrROS_Hall]	1.53 ± 0.13 kcal/mol	3.18 ± 0.04 kcal/mol	2.69 ± 0.13 kcal/mol
SAGGSAGGSAGGSPNYRLEIRVDIKVSYRYDLFTGEPIEPEVEIEVEIRLIPEGAIVDESAGGSAGGSAGGS [r4_175_TrMRF]	3.87 ± 0.14 kcal/mol	4.54 ± 0.28 kcal/mol	4.57 ± 0.28 kcal/mol
SAANPKDIVKAEIEIPGKYGAKFTVYTLPDGTVIVPAEVTLIEGDKPVKKPLVLVVDASTGKILAIADASAG [r14_630_TrMRF]	1.09 ± 0.033 kcal/mol	1.68 ± 0.06 kcal/mol	1.46 ± 0.042 kcal/mol
SAGGSAGGSAGGMKLVITLKDPNSDKTYTVTLPIEDKSPEEVIQEIEEKLGVEVVEVKPESAGGSAGGSAGG [r7_590_JUSTAS]	2.06 ± 0.083 kcal/mol	2.04 ± 0.021 kcal/mol	2.02 ± 0.06 kcal/mol

Sequence	folding stability dG unfold [1]	folding stability dG unfold [2]	folding stability dG unfold [3]
SAGGSAGGMARVLRVEPAEGDDTFYVEVEFYDPATGEVTLGRFRIPADRPDLATNIPADSWVVLSAGGSAGG [r6_978_TrMRF]	0.66 ± 0.04 kcal/mol	1.56 ± 0.059 kcal/mol	1.25 ± 0.046 kcal/mol
SAGRKIPIMFTWPNGDPERMEEIAIEFANYLQPNGLPNVTIKIERKPVKDPENGKRRYVYMVTIEVQPPSAG [r5_49_TrROS]	1.92 ± 0.043 kcal/mol	2.89 ± 0.089 kcal/mol	2.44 ± 0.2 kcal/mol
SAGGSMVITITFPDGSTVTIPEEELLELLKKYGIEPDESDKEKVAKEAAKIIGEEKGIPIKEVKINSAGGSA [r2_83_JUSTAS]	1.54 ± 0.059 kcal/mol	3.43 ± 0.092 kcal/mol	3.01 ± 0.066 kcal/mol
SAGGSAGGSAGTIVITQSPDGTWRAYYEDGTAEEFDSIDDLKKALEEHYPDAKTVIFKPASAGGSAGGSAGG [r11_806_TrMRF]	3.33 ± 0.15 kcal/mol	2.99 ± 0.17 kcal/mol	3.15 ± 0.17 kcal/mol
SAGGSADPIRTISGPVPLEEIEANIKKLLKENPNLDAAVFYIPEIGSKITIYFKNGKIVKIEIDLSSAGGSA [r15_166_TrMRF]	2.88 ± 0.084 kcal/mol	4.79 ± 0.13 kcal/mol	4.59 ± 0.16 kcal/mol
SAGGSAGGSAKTITITFLFDSPENAKDFVREIAQEDGMKIKVEWERDPEGWWWVTATIEVPSAGGSAGGSAG [r3_273_TrROS]	2.36 ± 0.1 kcal/mol	3.48 ± 0.13 kcal/mol	3.14 ± 0.15 kcal/mol
SAGNPSLVKETIIPFTLPDGSEVKLTVKTDPSTGKVTMPIETKDEKVKAKAIELAKKIAEELGFPEVGLSAG [r5_99_JUSTAS]	-0.00377 ± 0.15 kcal/mol	0.241 ± 0.14 kcal/mol	0.261 ± 0.079 kcal/mol
SMVVPVLIEKPYTSPEELEEFKKEAEELVKKLAEETGYPIKVLETKYTTDPNTNVVSLTLVVEIVSPELNSA [r9_105_JUSTAS]	1.97 ± 0.1 kcal/mol	2.6 ± 0.14 kcal/mol	2.45 ± 0.17 kcal/mol
SAGGSAGGSAGPIVLIKIKNKNGKEIEIEMSLEELKKKLPKELKNMKVEIVEVKEVKVEKSAGGSAGGSAGG [r11_353_TrROS_Hall]	0.351 ± 0.088 kcal/mol	0.315 ± 0.14 kcal/mol	0.56 ± 0.27 kcal/mol
SAGGSAGGSAGIITIWFPPDEEFRDFIENLPGPIEDVNIEPRNPGWIKVTLTMRMPPDQVSAGGSAGGSAGG [r11_143_TrROS]	0.703 ± 0.07 kcal/mol	0.864 ± 0.17 kcal/mol	0.871 ± 0.17 kcal/mol
SWMFMIEVHDPKNGKERTVPINMPKEQVLDQIREAQEKGPRIEIWGIPPNAIKEIAEEAKLPVEIHPMPPSA [r9_1207_TrROS]	0.012 ± 0.24 kcal/mol	0.409 ± 0.15 kcal/mol	0.148 ± 0.14 kcal/mol
SAGGSAGGSAMTFFVAVVKTETRVLPDGSLETRSSIEVKPVPAIPAEDLIKKLGLPLEDIASAGGSAGGSAG [r3_338_TrMRF]	2.13 ± 0.041 kcal/mol	3.14 ± 0.053 kcal/mol	2.61 ± 0.14 kcal/mol
SAGGSAGGGRYLVLIEFENGFPLAYVFPSPEDVVEHTRLLEERLGYPIKRIEVYKIDPNGKAYASAGGSAGG [r6_162_TrMRF]	2.41 ± 0.053 kcal/mol	2.42 ± 0.12 kcal/mol	2.53 ± 0.086 kcal/mol
SAGGAMVPVNFTLKFTYTNPDGTPVFREKPVTLPFPESDPAAAEAAARARAEAEAAARGVEVDLEVSLSAGG [r13_853_JUSTAS]	0.0284 ± 0.12 kcal/mol	0.219 ± 0.22 kcal/mol	0.193 ± 0.11 kcal/mol
SSSGPKTELITLKYEEPVRSPEEAEARARALAEEIAERTGAPIEVDVEIEYDPETGKAYVTVPVRVLLPDSA [r9_741_JUSTAS]	1.14 ± 0.037 kcal/mol	0.124 ± 0.16 kcal/mol	0.727 ± 0.1 kcal/mol
SAGGSAKDEKVVVIVRREVRLRSRPKVDLGEGNPRVEFESSVEVRVPFLVLPEDDPVARELRELEGSAGGSA [r15_470_TrMRF]	-0.46 ± 0.21 kcal/mol	-0.255 ± 0.24 kcal/mol	-0.26 ± 0.1 kcal/mol
SAGGSMPPDTEIAVIRVEVRPPDGSTLPLLFTVPLEKVEEVAKEIAERLREKGYEVKVELAAVFPVSAGGSA [r2_274_TrMRF]	2.06 ± 0.057 kcal/mol	2.18 ± 0.06 kcal/mol	2.04 ± 0.11 kcal/mol
SAGGSAGGSAGGAKTTTLGSESEEEIRAVAAKLPADSTITTNRPGGTSVITVSPNEIVTNSAGGSAGGSAGG [r7_560_JUSTAS]	0.144 ± 0.043 kcal/mol	1.22 ± 0.046 kcal/mol	0.836 ± 0.055 kcal/mol
SAGGSAGGSGSLLEKLGLEPNSTVTVTVTPEEAEKIRAEPRVKEIKREPTPEDTYLYTITVVASAGGSAGGS [r12_750_JUSTAS]	-0.705 ± 0.32 kcal/mol	0.0205 ± 0.2 kcal/mol	-0.302 ± 0.28 kcal/mol
SAGGSAGGSATITITVDGKTITLEVPEDSEVEIVFDEKTGKLFIKDKKTNKVYEVSLEELLSAGGSAGGSAG [r3_137_TrROS_Hall]	3.58 ± 0.22 kcal/mol	3.98 ± 0.15 kcal/mol	3.92 ± 0.13 kcal/mol
GSLVTVFPFPENGKTVEVVVPESVGTPLSEAEIRALLLEAHPDVPAAALPAEEAAEILQATPGVEAARVVAS [r1_463_JUSTAS]	-0.877 ± 0.7 kcal/mol	-0.0131 ± 0.19 kcal/mol	-0.302 ± 0.35 kcal/mol

— the supplement of paper PMC12764529
